Test results published in patent US20190262327A1 (AstraZeneca / MedImmune, published 2019).
Where a chain is given by its changes, count along the chain named.

T1: unlabelled murine Amyloid beta 1-40 peptide (murine, UniProt P12023 672-711)
T1 construct: domain: Amyloid beta 1-40 peptide
T1 peptide (looked up): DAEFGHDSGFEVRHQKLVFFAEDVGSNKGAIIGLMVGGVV

T2: unlabelled murine Amyloid beta 1-42 peptide (murine, UniProt P12023 672-713)
T2 construct: domain: Amyloid beta 1-42 peptide
T2 peptide (looked up): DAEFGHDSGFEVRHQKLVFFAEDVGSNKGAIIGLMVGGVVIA

B1: Abet0380 scFv (scFv, V domains shown, not shown: small tags and cut ends)
VH: EVQLLESGGGLVQPGGSLRLSCAASMGNFNYQTMWWVRQAPGRGLEWVSVIGKTNENIAYADSVKGRFTISRDNSKNTLYLQMNSLRAEDTAVYYCAREWMDHSRPYYYYGMDVWGQGTLVTVSS
VL: SYELTQPPSVSVSPGQTASITCSGHNLEDKFASWYQQKPGQSPVLVIYRDDKRPSGIPERFSASNSGHTATLTISGTQATDEADYYCSSQDTVTRVFGGGTKLTVL
notes: Purified scFv expressed in E. coli
B2: Abet0380-GL (germlined) IgG1-TM (antibody, V domains shown)
VH: B1 VH with R43K
VL: B1 VL with T80M
notes: also called Abet0380-GL IgG1-TM; Abet0380-GL IgG1TM
B3: Abet0369 scFv (scFv, V domains shown, not shown: small tags and cut ends)
VH: EVQLLESGGGLVQPGGSLRLSCAASSFQISKNTMWWVRRAPGKGLEWVSVIGKDETRFNYADSVKGRFTISRDNSKNTLYLQMNSLRAEDTAVYYCAREWMDHSRPYYYYGMDVWGQGTLVTVSS
VL: B1 VL with E3G, H25R, L27I, E28G, K30S, F31W, A32V, S33A
notes: as for B1
B4: human Abeta 17-42 peptide (peptide, UniProt P05067 688-713, looked up)
peptide: LVFFAEDVGSNKGAIIGLMVGGVVIA
notes: domain: Abeta 17-42
B5: Abet0377 scFv (scFv, V domains shown, not shown: small tags and cut ends)
VH: B1 VH with M26G, G27F, Y31E, M34L, R43K, K53V, T54G, N55T, E56K, S63T
VL: B1 VL with L27T, D29H, F31W, A32I, S64T
notes: as for B1
B6: human Abeta 1-16 peptide (peptide, UniProt P05067 672-687, looked up)
peptide: DAEFRHDSGYEVHHQK
notes: domain: Abeta 1-16
B7: human Abeta 12-28 peptide (peptide, UniProt P05067 683-699, looked up)
peptide: VHHQKLVFFAEDVGSNK
notes: domain: Abeta 12-28
B8: Abet0323b scFv (scFv, V domains shown, not shown: small tags and cut ends)
VH: EVQLLESGGGLVQPGGSLRLSCAASTSTFQEDTMWWVRQAPGKGLEWVSVIGPNPKNNAYADSVKGRFTISRDNSKNTLYLQMNSLRAEDTAVYYCAREWMDHSRPYYYYGMDVWGQGTLVTVSS
VL: B1 VL with I57V, T104I
notes: as for B1
B9: Abet0144-GL scFv (scFv, V domains shown, not shown: small tags and cut ends)
VH: EVQLLESGGGLVQPGGSLRLSCAASGFTFSVYTMWWVRQAPGKGLEWVSVIGSSGGTTVYADSVKGRFTISRDNSKNTLYLQMNSLRAEDTAVYYCAREWMDHSRPYYYYGMDVWGQGTLVTVSS
VL: B1 VL with T80M, S88Q, S89A, T92S, V93T
notes: Purified scFv expressed in E. coli; also called parent clone

Key:
[1] = target: T3, biotinylated synthetic human Amyloid beta 1-42 peptide (human, UniProt P05067 672-713, biotinylated (N-terminal biotin in Example 4)); test: HTRF epitope competition; purified scFv titrated; competitor Abet0144-GL IgG1-TM; range of repeats
T3 construct: domain: Amyloid beta 1-42 peptide; Numbers 1-42 count on the Amyloid beta peptide, not on APP; also called biotinylated human Amyloid beta 1-42; N-terminal biotin Abeta 1-42
Protocol: (§1) Two thousand and twenty four scFv chosen at random from selection rounds 3 and 4 of the targeted mutagenesis approach described in section 1.2 were expressed in bacteria to produce unpurified periplasmic scFv.
(§2) One thousand six hundred and seventy two scFv, randomly selected from selection rounds 9 to 11, were screened in an epitope competition assay as described in section 1.3.
(§3) Where the assay was performed more than once, the absolute range of IC₅₀ values is provided.
Target sequence in this assay (P05067 672-713 limits assumed): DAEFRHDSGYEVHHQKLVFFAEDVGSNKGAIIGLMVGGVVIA

[2] = target: T3, biotinylated synthetic human Amyloid …; test: HTRF epitope competition: purified scFv titrated against the complex of biotinylated human Amyloid beta 1-42 and Abet0144-GL IgG1-TM [upper graph; the letter C stands below it]
Text: as §1, §2

[3] = target: T3, biotinylated synthetic human Amyloid …; test: HTRF epitope competition; purified scFv titrated; competitor Abet0144-GL IgG1-TM
Protocol: as §1, §2, §3
Target sequence in this assay (P05067 672-713 limits assumed): as above

[4] = target: T3, biotinylated synthetic human Amyloid …; test: SPR (ProteOn); biotinylated peptide on streptavidin chip, scFv in solution; 1:1 Langmuir fit
Protocol: (§4) These experiments were performed essentially as described by Karlsson et al. (Karlsson et al., 1991).
(§5) The chip surface was regenerated between cycles by a single 60 second injection of 10 mM Glycine pH 2.0 to remove scFv bound to the peptide.
(§6) Each scFv at 100-200 nM was sequentially passed over the peptide surface for a sufficient amount of time to observe sensorgrams that could be fitted to an appropriate binding model with confidence. An irrelevant scFv blank was subtracted from the main dataset to reduce the impact of any buffer artefacts or non-specific binding effects. An appropriate binding model was then fitted to the data.

[5] = target: T3, biotinylated synthetic human Amyloid …; test: Surface Plasmon Resonance, purified scFv (group statement that sums up Table 5)
[6] = target: T4, synthetic human Amyloid beta 1-42 peptide (human, UniProt P05067 672-713); test: SPR (BIAcore T-100); IgG captured on protein G, peptide 0.063-1024 nM in solution; 1:1 Langmuir fit
T4 construct: domain: Amyloid beta 1-42 peptide; also called Abeta 1-42
Protocol: The chip surface was regenerated between cycles by paired 40 second injections of 10 mM Glycine pH 2.0 to remove ligand and bound antibody. The test antibody was then reapplied for each peptide injection.
Blank reference flow-cell data were subtracted from each IgG dataset and a zero-concentration antibody-only buffer blank was double-reference subtracted from the main dataset. An appropriate binding model was then fitted simultaneously to the data from each analyte titration using the BIAevaluation software.

[7] = target: T5, biotinylated human Amyloid beta 1-40 peptide (human, UniProt P05067 672-711, biotinylated); test: Surface plasmon resonance (BIAcore), antibody captured on protein G, single cycle with five peptide injections
T5 construct: domain: Amyloid beta 1-40 peptide
Protocol: as §4
(§7) The interaction between each test IgG and each peptide was estimated using assays in which the antibody was non-covalently captured by a protein G surface that was itself amine linked to a proprietary CM5 chip. […] The chip surface was regenerated between cycles by paired 40 second injections of 10 mM Glycine pH 2.0 to remove ligand and bound antibody. The test antibody was then reapplied for each peptide injection cycle.
(§8) Blank reference flow-cell data were subtracted from each IgG dataset and a zero-concentration antibody-only buffer blank was double-reference subtracted from the main dataset.

[8] = target: T1, unlabelled murine Amyloid beta 1-40 …; test: as above
Protocol: as §4, §7, §8

[9] = target: T2, unlabelled murine Amyloid beta 1-42 …; test: Surface plasmon resonance (BIAcore), antibody captured on protein G, single cycle with five peptide injections (64 to 1024 nM by paragraph 390)
Protocol: as §4, §7, §8

[10] = target: T3, biotinylated synthetic human Amyloid …; test: SPR (ProteOn); biotinylated peptide on streptavidin chip, scFv in solution
Protocol: as §4, §5, §6
Target sequence in this assay (P05067 672-713 limits assumed): as above

[11] = target: T3, biotinylated synthetic human Amyloid …; test: HTRF epitope competition: purified scFv titrated against the complex of biotinylated human Amyloid beta 1-42 and Abet0144-GL IgG1-TM
Text: as §1, §2

[12] = target: B2; test: HTRF competition: unlabelled peptide titrated against the binding of N-terminal biotin Abeta 1-42 (1.5 nM) to Abet0380-GL IgG1-TM (0.5 nM)
Protocol: The assay was then incubated for a further 2 hrs at room temperature before reading on an Envision plate reader (PerkinElmer) using a standard homogeneous time resolved fluorescence (HTRF) read protocol.
The final assay volume was 20 μl and all reagents were prepared in an assay buffer comprising MOPS pH7.4 (50 mM), potassium fluoride (0.4M), tween 20 (0.1%) & fatty acid free BSA (0.1%). The assay was performed in low volume 384 well black assay plates (Costar 3676).

Binder	IC50 [1] [nM]	IC50 [3] [nM]	Kd [10] [nM]	koff [10] [s⁻¹]	kon [10] [M⁻¹ s⁻¹]	also measured
B1	0.38 to 0.47	0.43	–	–	–	IC50 (read off the curve) [2]: ~0.5 nM; Kd [4]: 0.148 nM; koff [4]: 2.85e-05 s⁻¹; kon [4]: 193000 M⁻¹ s⁻¹; Kd [5]: < 0.25 nM
B2	–	–	–	–	–	Kd [6]: 0.322 nM; koff [6]: 0.000307 s⁻¹; kon [6]: 952000 M⁻¹ s⁻¹; binding result [7]: no binding; binding result [8]: no binding; binding result [9]: binds
B3	0.3 to 0.41	0.36	0.133	4.34e-05	327000	IC50 (read off the curve) [11]: ~0.4 nM
B4	–	–	–	–	–	IC50 (read off the curve) [12]: ~5 nM
B5	0.29 to 0.35	0.32	0.154	3.02e-05	196000	IC50 (read off the curve) [11]: ~0.3 nM
B6	–	–	–	–	–	binding result [12]: no binding (tested: log -5 M (10 uM))
B7	–	–	–	–	–	binding result [12]: no binding (tested: log -5 M (10 uM))
B8	0.57 to 0.76	0.67	0.894	0.000188	210000	–
B9	8.1 to 18	14	58.7	0.0066	116000	–
